Source: patent US20220184181A1 (Stanford University, published 2022)

Molecular target: Met receptor on MDCK cells (UniProt Q75ZY9 25-1382, limits assumed)
Test: cell-based or functional assay

inhibition of HGF-induced activation of Met: ~5 fold lower concentration
B1: recombinant Aras-4, soluble (ligand)
chain: YAEGQGKRRNTIHEFKKSAKTTLIKIDPALRIKTEKANTADQCANRCTRSKGLPFTCKAFVFDKARKRCLWFPFNSMSSGVKKEFGHEFDLYENKAYIRDCIIGRGRNYRGTVSITKSGIKCQPWSAMIPHEHSFLPSSYRGEDLRENYCRNPRGEEGGPWCYTSDPEVRYEVCDIPQCSEVE
